Results: article PMC11007441, “Deciphering the role of Enterococcus faecium cytidine deaminase in gemcitabine resistance of gallbladder cancer” (The Journal of Biological Chemistry, 2024)

Experiments:
[1] = system: Nc1ccn([C@@H]2O[C@H](CO)[C@@H](O)C2(F)F)c(=O)n1; experiment: purified protein; settings: 0.2 uM enzyme; gemcitabine 0.5-8 mM; initial rates 0-1 min
[2] = target: the molecule itself; experiment: crystal structure; vapor diffusion, EfCDA at 15 mg/ml; apo-I (0.1 M Tris pH 8.5, 2.2 M (NH4)2SO4), apo-II (0.1 M sodium cacodylate pH 6.5, 20% PEG 4000) and complex with dFdU (co-crystallised with gemcitabine 1:10); tetramer from two molecules of the asymmetric unit by crystal symmetry

Question: How did the Km [1] turn out when “EfCDA (cytidine deaminase of Enterococcus faecium) (Enterococcus lactis)” was run?
Answer: 8.44 mM

B1: cytidine deaminase of Enterococcus faecium (EfCDA) (enzyme, UniProt Q3XXR8 1-132, looked up)
chain: MAELKQEWINTAIEALDKAYVPYSHFPVGACLVTESGKIYQGINIENASFGLTNCAERTAFFKAVSEGEKTFTHLVVAGHTPDPISPCGACRQVMAEFCSPDMPVTLVGDNGVTKATTVRALLPYAFTEKDL
notes: cytidine deaminase of Enterococcus faecium, full-length protein with a single CDA catalytic domain, 132 amino acids; UniProt A0A133N269, WP_002291109.1; Homotetramer in the crystal: molecules A and B in the asymmetric unit, the tetramer completed by a symmetry operation; One zinc ion per chain (C55, C88, C91); also called EfCDD; T-CDA; source: E. coli BL21 (DE3), purified (HisTrap HP, HiTrap Q, …)
Question: Which “stoichiometry N” value [2] does the source give for B1 here?
Answer: 4
